Assays:
ObgE (rObgE) = molecular target: T1, ObgE (rObgE) (Phocaeicola vulgatus, UniProt A6L100); experiment: isothermal titration calorimetry; type: binding
T1 construct: gene obg; 45 kDa; nucleotide-free (alkaline phosphatase, gel filtration)
T1 sequence (A6L100 1-394): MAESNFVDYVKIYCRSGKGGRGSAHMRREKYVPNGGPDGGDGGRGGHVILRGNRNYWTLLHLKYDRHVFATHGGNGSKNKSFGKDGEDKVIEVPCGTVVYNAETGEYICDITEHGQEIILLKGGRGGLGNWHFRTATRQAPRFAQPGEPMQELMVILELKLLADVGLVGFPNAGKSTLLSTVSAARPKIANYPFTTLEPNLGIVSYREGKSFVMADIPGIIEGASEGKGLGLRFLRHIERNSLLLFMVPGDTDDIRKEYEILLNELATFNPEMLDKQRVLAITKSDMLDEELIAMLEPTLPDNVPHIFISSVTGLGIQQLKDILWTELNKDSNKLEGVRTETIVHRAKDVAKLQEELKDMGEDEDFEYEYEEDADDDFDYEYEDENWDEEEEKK

[1] = molecular target: recombinant ObgE of Bacteroides vulgatus MGM001, nucleotide-free (Bacteroides vulgatus MGM001); experiment: ITC; MicroCal iTC200; nucleotide-free rObgE (40 μM) titrated with 400 μM cyclic dipeptide at 25 °C in 20 mM HEPES (pH 7.5), 150 mM NaCl, 5 mM MgCl2, 1 mM β-mercaptoethanol; single binding site model

Row | Compound | Kd (ObgE (rObgE)) | Kd [1] | stoichiometry N [1]
1 | O=C1N[C@@H](Cc2ccccc2)C(=O)N2CCC[C@@H]12 [cFP] | 1800 ± 350 nM |  | 
2 | cyclo-(phenylalanine-proline) (peptide) |  | 1800 nM | 0.78

Source: paper PMC8293591, “Vibrio vulnificus induces the death of a major bacterial species in the mouse gut via cyclo-Phe-Pro” (Microbiome, 2021)
